These results are taken from article PMC7007264.

This data set has as its target Rad51-2A (Saccharomyces cerevisiae, UniProt P25454 1-400, S125A;S375A). As to the kind of experiment: EMSA. For orientation: Mobility shift assays separate free from complexed probe on a gel.

Rad51-2A, sequence (P25454 whole entry S125A/S375A): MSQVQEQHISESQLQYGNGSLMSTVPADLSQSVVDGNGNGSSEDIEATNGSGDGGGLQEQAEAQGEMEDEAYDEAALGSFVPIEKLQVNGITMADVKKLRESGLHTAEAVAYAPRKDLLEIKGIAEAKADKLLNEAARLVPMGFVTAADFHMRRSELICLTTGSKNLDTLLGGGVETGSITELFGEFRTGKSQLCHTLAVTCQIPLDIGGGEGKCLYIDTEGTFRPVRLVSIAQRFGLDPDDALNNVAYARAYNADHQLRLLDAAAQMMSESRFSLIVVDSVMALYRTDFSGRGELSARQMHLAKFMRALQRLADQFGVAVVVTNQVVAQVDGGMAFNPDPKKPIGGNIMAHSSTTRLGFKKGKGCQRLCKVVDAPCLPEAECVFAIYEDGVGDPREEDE

B1: ssDNA EMSA probe (ssDNA)
DNA: CGGGTGTCGGGGCTGGCTTAACTATGCGGCATCAGAGCAGATTGTACTGAGAGTGCACCATATGCGGTGTGAAATACCGCACAGATGCGT
Take B1: the binding result is listed as “no binding”.
